Results from doi:10.1101/2024.02.16.579620 (bioRxiv, 2024).
Values joined by “and” are separate entries in the source; they are usually repeats but may differ in a detail not shown here. Equal entries are not always repeated.

B1: FITC-labelled human Ire1α luminal domain (aa 24-449) (domain or fragment)
chain: STVTLPETLLFVSTLDGSLHAVSKRTGSIKWTLKEDPVLQVPTHVEEPAFLPDPNDGSLYTLGSKNNEGLTKLPFTIPELVQASPCRSSDGILYMGKKQDIWYVIDLLTGEKQQTLSSAFADSLCPSTSLLYLGRTEYTITMYDTKTRELRWNATYFDYAASLPEDDVDYKMSHFVSNGDGLVVTVDSESGDVLWIQNYASPVVAFYVWQREGLRKVMHINVAVETLRYLTFMSGEVGRITKWKYPFPKETEAKSKLTPTLYVGKYSTSLYASPSMVHEGVAVVPRGSTLPLLEGPQTDGVTIGDKGECVITPSTDVKFDPGLKSKNKLNYLRNYWLLIGHHETPLSASTKMLERFPNNLPKHRENVIPADSEKKSFEEVINLVDQTSENAPTTVSRDVEEKPAHAPARPEAPVDSMLKDMATIIL
modifications: FITC label (site not stated)
B2: human Ire1α luminal domain (aa 24-449), wild type (domain or fragment)
chain: B1 chain

Key:
MST = biological target: the molecule itself; assay: MST
SEC = biological target: the molecule itself; assay: SEC
ΔEspP peptide = assay: dynamic light scattering

Binder | Kd (MST) | stoichiometry N (SEC) | binding result (ΔEspP peptide)
B1 | 500 nM |  | 
B2 |  | 2 and 4 | binds
